Numbered stars: 1 amine (or outer) side, 2 acyl side, 3 side chain; on linkers, the order of the positions; unused ones are H or OH. Bridge positions count the residues as written; N and C are the ends. Square brackets hold non-standard residues; d marks the D form. Primed or numbered codes have the meaning given here. Tyr(Me) = Yme = 4-methoxy-L-phenylalanine (O-methyl-tyrosine), COc1ccc(C[C@H](N[*:1])C(=O)[*:2])cc1; Tyr(Me)″ = O-methyl-tyrosine (4-methoxy-phenylalanine), COc1ccc(C[C@H](N[*:1])C(=O)[*:2])cc1; 1Nal = N[C@@H](Cc1cccc2ccccc12)C(=O)O; 2Nal = N[C@@H](Cc1ccc2ccccc2c1)C(=O)O; AEF = NCCOc1ccc(C[C@H](N)C(=O)O)cc1; Cit = NC(=O)NCCC[C@H](N)C(=O)O; Orn = NCCC[C@H](N)C(=O)O; Aib = CC(C)(N)C(=O)O
T1: recombinant human IL-23R-Fc chimera (human, UniProt Q5VWK5 24-353, limits assumed)
T1 construct: Recombinant reagent; also called interleukin-23 receptor; not shown: detected with goat anti-hu-IgG1-HRP antibody
T1 sequence (looked up): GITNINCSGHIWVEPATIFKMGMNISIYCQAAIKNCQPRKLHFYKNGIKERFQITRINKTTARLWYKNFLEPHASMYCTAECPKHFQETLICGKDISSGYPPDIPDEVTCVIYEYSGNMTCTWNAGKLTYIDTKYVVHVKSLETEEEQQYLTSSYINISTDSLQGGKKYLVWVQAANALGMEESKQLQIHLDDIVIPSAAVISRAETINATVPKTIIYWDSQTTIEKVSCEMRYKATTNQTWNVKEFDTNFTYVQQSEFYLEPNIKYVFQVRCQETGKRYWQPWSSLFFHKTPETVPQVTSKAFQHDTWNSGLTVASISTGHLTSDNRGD

T2: IL-23 receptor on the surface of HEK-Blue IL-23 cells (UniProt Q5VWK5 24-629, limits assumed)
T2 sequence (looked up): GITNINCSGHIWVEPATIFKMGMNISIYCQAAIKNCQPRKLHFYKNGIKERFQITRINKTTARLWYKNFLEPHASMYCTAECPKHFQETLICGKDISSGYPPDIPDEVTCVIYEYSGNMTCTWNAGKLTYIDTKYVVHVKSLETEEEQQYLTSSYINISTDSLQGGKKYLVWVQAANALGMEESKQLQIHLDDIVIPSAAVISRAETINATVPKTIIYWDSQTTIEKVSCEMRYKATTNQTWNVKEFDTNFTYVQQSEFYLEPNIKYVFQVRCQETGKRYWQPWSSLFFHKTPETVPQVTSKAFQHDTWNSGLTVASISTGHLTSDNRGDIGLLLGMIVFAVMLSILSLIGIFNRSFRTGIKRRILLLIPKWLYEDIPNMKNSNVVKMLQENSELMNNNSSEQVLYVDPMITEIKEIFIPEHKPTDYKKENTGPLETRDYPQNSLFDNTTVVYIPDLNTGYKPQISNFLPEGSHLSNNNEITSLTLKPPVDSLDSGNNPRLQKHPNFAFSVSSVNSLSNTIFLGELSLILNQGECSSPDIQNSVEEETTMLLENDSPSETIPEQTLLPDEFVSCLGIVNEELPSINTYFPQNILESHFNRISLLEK


Experiments:
[1] = biological target: T1, recombinant human IL-23R-Fc chimera; test: competition ELISA: coated human IL-23, IL-23R-Fc 0.1 ug/ml, peptide titrated
Protocol: Antagonism of peptide compounds for human interleukin-23 receptor inhibitors, was determined by an ELISA assay.
A 384-well plate was coated with 50 μl/well of human IL-23 at a final concentration of 1 μg/ml and incubated overnight at 4° C. The wells were washed 3 times with 80 μl wash buffer and blocked with 80 μl blocking buffer for 60 minutes at room temperature and washed again. 20 μl of serially diluted test peptides was added to each well and subsequently 20 μl of recombinant human IL-23R-Fc chimera at final concentration of 0.1 μg/ml. The plate was incubated for 60 minutes at room temperature. After the wells were washed, bound IL-23R-Fc was detected with goat anti-hu-lgG1-HRP antibody. Signals were visualized with QuantaBlu Fluorogenic Peroxidase Substrate.

[2] = biological target: T2, IL-23 receptor on the surface of …; test: cell-based or functional assay

Row | Binder | IC50 [1] | Inhibition of IL-23 induced pSTAT3 (IC50 nM) [2]
1 | Ac-[dK]NTWQR[Tyr(Me)][1Nal][Cit]DNN-NH2 (lactam 1-10; SMILES COc1ccc(C[C@@H]2NC(=O)[C@H](CCCNC(=N)N)NC(=O)[C@H](CCC(N)=O)NC(=O)[C@H](Cc3c[nH]c4ccccc34)NC(=O)[C@H]([C@@H](C)O)NC(=O)[C@H](CC(N)=O)NC(=O)[C@H](NC(C)=O)CCCCNC(=O)C[C@@H](C(=O)N[C@@H](CC(N)=O)C(=O)N[C@@H](CC(N)=O)C(N)=O)NC(=O)[C@H](CCCNC(N)=O)NC(=O)[C@H](Cc3cccc4ccccc34)NC2=O)cc1) [peptide compound SEQ ID NO: 18] | 11.8 nM | 10000 nM
2 | Ac-[dK]NTWQR[Tyr(Me)″][1Nal]K(Ac)DNN-NH2 (lactam 1-10; SMILES COc1ccc(C[C@@H]2NC(=O)[C@H](CCCNC(=N)N)NC(=O)[C@H](CCC(N)=O)NC(=O)[C@H](Cc3c[nH]c4ccccc34)NC(=O)[C@H]([C@@H](C)O)NC(=O)[C@H](CC(N)=O)NC(=O)[C@H](NC(C)=O)CCCCNC(=O)C[C@@H](C(=O)N[C@@H](CC(N)=O)C(=O)N[C@@H](CC(N)=O)C(N)=O)NC(=O)[C@H](CCCCNC(C)=O)NC(=O)[C@H](Cc3cccc4ccccc34)NC2=O)cc1, synthetic macrolactam) [peptide compound SEQ ID NO: 17] | 7.87 nM | 5650 nM
3 | Ac-[dK]NTWQR[Tyr(Me)″][2Nal]QDNN-NH2 (lactam 1-10; SMILES COc1ccc(C[C@@H]2NC(=O)[C@H](CCCNC(=N)N)NC(=O)[C@H](CCC(N)=O)NC(=O)[C@H](Cc3c[nH]c4ccccc34)NC(=O)[C@H]([C@@H](C)O)NC(=O)[C@H](CC(N)=O)NC(=O)[C@H](NC(C)=O)CCCCNC(=O)C[C@@H](C(=O)N[C@@H](CC(N)=O)C(=O)N[C@@H](CC(N)=O)C(N)=O)NC(=O)[C@H](CCC(N)=O)NC(=O)[C@H](Cc3ccc4ccccc4c3)NC2=O)cc1, synthetic macrolactam) [peptide compound SEQ ID NO: 30] | 9.64 nM | 6050 nM
4 | Ac-[dK]NTWQR[Tyr(Me)″][1Nal]QDNN-NH2 (lactam 1-10; SMILES COc1ccc(C[C@@H]2NC(=O)[C@H](CCCNC(=N)N)NC(=O)[C@H](CCC(N)=O)NC(=O)[C@H](Cc3c[nH]c4ccccc34)NC(=O)[C@H]([C@@H](C)O)NC(=O)[C@H](CC(N)=O)NC(=O)[C@H](NC(C)=O)CCCCNC(=O)C[C@@H](C(=O)N[C@@H](CC(N)=O)C(=O)N[C@@H](CC(N)=O)C(N)=O)NC(=O)[C@H](CCC(N)=O)NC(=O)[C@H](Cc3cccc4ccccc34)NC2=O)cc1, synthetic macrolactam) [peptide compound SEQ ID NO: 19] | 15.6 nM | 9600 nM
5 | Ac-[Orn]NTWQR[AEF][2Nal][Aib]ENN-NH2 (lactam 1-10; SMILES CC(=O)N[C@H]1CCCNC(=O)CC[C@@H](C(=O)N[C@@H](CC(N)=O)C(=O)N[C@@H](CC(N)=O)C(N)=O)NC(=O)C(C)(C)NC(=O)[C@H](Cc2ccc3ccccc3c2)NC(=O)[C@H](Cc2ccc(OCCN)cc2)NC(=O)[C@H](CCCNC(=N)N)NC(=O)[C@H](CCC(N)=O)NC(=O)[C@H](Cc2c[nH]c3ccccc23)NC(=O)[C@H]([C@@H](C)O)NC(=O)[C@H](CC(N)=O)NC1=O) [peptide compound SEQ ID NO: 38] | 12.5 nM | 1570 nM
6 | Ac-[dK]NTWQR[Tyr(Me)][2Nal][Aib]DN-NH2 (lactam 1-10; SMILES COc1ccc(C[C@@H]2NC(=O)[C@H](CCCNC(=N)N)NC(=O)[C@H](CCC(N)=O)NC(=O)[C@H](Cc3c[nH]c4ccccc34)NC(=O)[C@H]([C@@H](C)O)NC(=O)[C@H](CC(N)=O)NC(=O)[C@H](NC(C)=O)CCCCNC(=O)C[C@@H](C(=O)N[C@@H](CC(N)=O)C(N)=O)NC(=O)C(C)(C)NC(=O)[C@H](Cc3ccc4ccccc4c3)NC2=O)cc1) [peptide compound SEQ ID NO: 26] | 18.8 nM | 8110 nM

Second part, the binder after the results:

Row | IC50 [1] | Inhibition of IL-23 induced pSTAT3 (IC50 nM) [2] | Binder
7 | 9.03 nM | 2210 nM | Ac-[dK]NTWQR[Tyr(Me)″][2Nal]K(Ac)DNN-NH2 (lactam 1-10; SMILES COc1ccc(C[C@@H]2NC(=O)[C@H](CCCNC(=N)N)NC(=O)[C@H](CCC(N)=O)NC(=O)[C@H](Cc3c[nH]c4ccccc34)NC(=O)[C@H]([C@@H](C)O)NC(=O)[C@H](CC(N)=O)NC(=O)[C@H](NC(C)=O)CCCCNC(=O)C[C@@H](C(=O)N[C@@H](CC(N)=O)C(=O)N[C@@H](CC(N)=O)C(N)=O)NC(=O)[C@H](CCCCNC(C)=O)NC(=O)[C@H](Cc3ccc4ccccc4c3)NC2=O)cc1, synthetic macrolactam) [peptide compound SEQ ID NO: 28]
8 | 3.55 nM | 1610 nM | Ac-KNTWQR[Tyr(Me)″][1Nal][Aib]DNN-NH2 (lactam 1-10; SMILES COc1ccc(C[C@@H]2NC(=O)[C@H](CCCNC(=N)N)NC(=O)[C@H](CCC(N)=O)NC(=O)[C@H](Cc3c[nH]c4ccccc34)NC(=O)[C@H]([C@@H](C)O)NC(=O)[C@H](CC(N)=O)NC(=O)[C@@H](NC(C)=O)CCCCNC(=O)C[C@@H](C(=O)N[C@@H](CC(N)=O)C(=O)N[C@@H](CC(N)=O)C(N)=O)NC(=O)C(C)(C)NC(=O)[C@H](Cc3cccc4ccccc34)NC2=O)cc1, synthetic macrolactam) [peptide compound SEQ ID NO: 9]
9 | 5.42 nM | 1380 nM | Ac-[dK]NTWQRY[1Nal][Aib]DNN-NH2 (lactam 1-10; SMILES CC(=O)N[C@@H]1CCCCNC(=O)C[C@@H](C(=O)N[C@@H](CC(N)=O)C(=O)N[C@@H](CC(N)=O)C(N)=O)NC(=O)C(C)(C)NC(=O)[C@H](Cc2cccc3ccccc23)NC(=O)[C@H](Cc2ccc(O)cc2)NC(=O)[C@H](CCCNC(=N)N)NC(=O)[C@H](CCC(N)=O)NC(=O)[C@H](Cc2c[nH]c3ccccc23)NC(=O)[C@H]([C@@H](C)O)NC(=O)[C@H](CC(N)=O)NC1=O, synthetic macrolactam) [peptide compound SEQ ID NO: 14]
10 | 1.59 nM | 339 nM | Ac-[dK]NTWQRY[2Nal][Aib]DNN-NH2 (lactam 1-10, synthetic macrolactam) [peptide compound SEQ ID NO: 4]

— patent US20260250322A1, “NEW PEPTIDES AS SELECTIVE IL-23 RECEPTOR INHIBITORS” (SANOFI, priority 2023, published 2026)
